{"source": "patent US20060134801A1", "about": "“Methods and compositions involving MDA-7” (Board of Regents, The University of Texas System, priority 2003, published 2006)", "molecules": {"B1": {"name": "sMDA-7: soluble secreted human MDA-7 (IL-24) protein purified from stably transfected 293-mda-7 cells (protein)", "chain": "AQGQEFHFGPCQVKGVVPQKLWEAFWAVKDTMQAQDNITSARLLQQEVLQNVSDAESCYLVHTLLEFYLKTVFKNYHNRTVEVRTLKSFSTLANNFVLIVSQLQPSQENEMFSIRDSAHRRFLLFRRAFKQLDVEAALTKALGEVDILLTWMQKFYKL"}}, "key": {"HUVEC [1]": {"tested_on": "HUVEC", "experiment": "IP-10 and IFN-γ production by ELISA", "format": "cell-based, human", "conditions": "10 ng/ml; 48 h period", "experimental": "Furthermore, IFN-γ is a potent inducer of IP-10 (Majumder et al., 1998). […] Studies were conducted to determine whether the antiangiogenic activity of sMDA-7 was mediated by IFN-γ or IP-10. HUVEC were seeded in 6-well plates (1×10^5/well) and treated with sMDA-7 (10 ng/ml). Cell culture supernatant was collected at 6 h, 24 h, and 48 h after treatment, centrifuged at 1200 rpm, and analyzed for IP-10 and IFN-γ protein production using commercially available ELISA kits. Assays were performed as recommended by the manufacturer (R&D systems, Minneapolis, Minn.). […] Cells treated with PBS served as negative controls in these experiments. Samples were analyzed in quadruplicate, and data represented as the average value for each concentration of sMDA-7 tested."}, "melanoma cell lines": {"tested_on": "melanoma cell lines", "experiment": "Trypan blue viability, melanoma cell lines (panel)", "format": "cell-based, human", "excerpt": "rhMDA-7 (IL-24) protein was purified from 293-mda7 cells using affinity chromatography. Various lots of protein ranged from 30% ->80% purity based upon silver stain. The rhMDA-7 protein was applied to melanoma cell lines, and cells assessed for viability using the Trypan blue assay. […] Treatment of melanoma cells with rhMDA-7 results in rapid activation (via phosphorylation) of STAT3. The cytotoxicity observed in melanoma cells is inhibited by anti-MDA-7 antibodies.\nThe mechanism of the anti-tumor activity of rhMDA-7 was also evaluated. Melanoma cells were treated with rhMDA-7 protein and assessed for apoptosis using the TUNEL assay. […] These studies were performed with purified rhMDA-7 protein. The melanoma cells have also been treated with supernatant from 293-mda7 cells or control 293 cells. Only the 293-mda7 supernatant causes cell killing."}, "[2]": {"tested_on": "bFGF-induced angiogenesis", "experiment": "In vivo Matrigel plug angiogenesis assay", "design": "species or system athymic nude mice", "conditions": "12.5 ng in Matrigel with 60 ng bFGF; 10 days", "experimental": "To determine the antiangiogenic activity of sMDA-7, an in vivo angiogenesis assay was performed. Briefly, sMDA-7 (12.5 ng) and bFGF (60 ng) was mixed with 500 μl of Matrigel (Beckton Dickinson, Bedford, Mass.) on ice and injected subcutaneously into athymic nude mice. Animals receiving Matrigel containing only bFGF (60 ng) served as positive controls and animals receiving Matrigel containing no growth factor served as negative controls. Each group comprised of five animals and the experiments were performed twice. Animals were sacrificed 10 days after injection. The Matrigel plugs were recovered, photographed, and subjected to hemoglobin analysis as previously described (Pessaniti et al., 1992)."}, "HUVEC [3]": {"tested_on": "HUVEC", "experiment": "Endothelial cell migration assay (Transwell, VEGF)", "format": "cell-based, human", "conditions": "VEGF 100 ng/ml", "experimental": "Cell migration assays were performed using HUVEC. Cells were starved overnight in basal medium containing 0.5% fetal bovine serum, collected, resuspended in the same medium, and seeded at a concentration of 10^5 cells/well on the upper surface of a 24-well transwell insert with a pore size of 8 μm (Millipore, Cambridge, Mass.). The insert was placed in a six-well plate that contained medium plus PBS, medium plus VEGF (100 ng/ml) or VEGF plus sMDA-7 (10 or 50 ng/ml). The plates containing the transwell insert were incubated at 37° C. overnight to allow migration. The next day, the wells were disassembled, membranes were fixed in crystal violet, and the number of cells that had migrated to the lower wells was counted under high-power magnification (×40)."}, "[4]": {"tested_on": "A549 cells and CCD16 cells", "experiment": "Clonogenic survival with MDA-7 conditioned medium and radiation", "format": "cell-based, human", "conditions": "10 ng/ml", "experimental": "FIG. 60. Clonogenic survival of A549 cells (A) and CCD16 cells (B). Cells were serum starved for 12 hours and treated with conditioned medium containing mda7 protein (10 ng/ml). Twelve hours later, cells were irradiated, harvested and plated in regular medium. After incubation for 14 days, colonies were counted and survival.\nTwelve hours after seeding HUVECs in 4-well plates (Nunc, Roskilde, Denmark), medium was replaced with serum/growth factor-free medium. After serum/growth factor starvation for 12 hours, cells were treated with complete medium containing either MDA-7 protein (10 ng/ml) (removed from cultures of 293 cells), angiostatin (100 ng/ml), or endostatin (100 ng/ml). Twelve hours later, cells were irradiated with ^137CS unit (3.4 Gy/min) at room temperature, trypsinized and counted. Known numbers of cells were replated in 60 mm culture dishes and incubated to allow macroscopic colony development. Colonies were counted after 14 days, and the percent plating efficiency and surviving fractions following given treatments were calculated based on the survival of non-irradiated cells."}, "STAT-3": {"tested_on": "STAT-3", "experiment": "STAT-3 activation, western blot and immunofluorescence", "format": "cell-based, human", "conditions": "HUVEC; 10 ng/ml; 4 h to 24 h", "experimental": "Therefore, studies were conducted to determine the activation of STAT-3 expression in endothelial cells after treatment with sMDA-7. HUVEC were seeded in 6-well plates (5×10^5 cells/well) and treated with sMDA-7 (10 ng/ml). Untreated cells served as negative controls. Cells were harvested at 4 h and 24 h after treatment and analyzed for STAT-3 expression by western blot analysis as previously described (Mhashilkar et al., 2001; Pataer et al., 2002). […] (pSTAT-3) protein was detected using rabbit anti-human pSTAT-3 antibody (1:1000, Cell Signaling Technology, Beverly, Mass.) and horseradish peroxidase-labeled secondary antibody (Amersham Biosciences, Piscataway, N.J.). Finally, the proteins were visualized on enhanced chemiluminescence film (Hyperfilm, Amersham Biosciences, Piscataway, N.J.) by application of Amersham's enhanced chemiluminescence western blotting detection system. STAT-3 protein expression level was quantitated after normalization with total STAT-3 protein expression using Image Quant software (Molecular Dynamics, Amersham Pharmacia Biotech, Piscataway, N.J.).\nActivation of STAT-3 was also determined by immunofluorescence assay. […] Pictures were taken through a fluorescence microscope 1-2 h after staining."}, "A549 and H1299": {"tested_on": "A549 and H1299", "experiment": "Effect of secreted MDA-7 protein on lung cancer cells", "format": "cell-based, human", "experimental": "The number of apoptotic cells was measured by propidium iodide staining and FACS analysis. Cells were harvested, pelleted by centrifugation and resuspended in phosphate-buffered saline containing 50 μg/ml propidium iodide, 0.1% Triton X-100, and 0.1% sodium citrate. Samples were stored at 4° C. for 1-3 hours and vortexed prior to FACS analysis (Becton-Dickenson FACScan, Mountain View, Calif.; FL-3 channel)."}}, "data": [{"molecule": "B1", "values": [{"measurement": "induced secretion of IFN-γ", "setting": "HUVEC [1]", "value": "< 30", "unit": "pg/mL"}, {"measurement": "induced secretion of IP-10", "setting": "HUVEC [1]", "value": "< 32", "unit": "pg/mL"}, {"measurement": "death in melanoma cells", "setting": "melanoma cell lines; 0-20 ng/ml, 4 days", "value": "dose-dependent death"}, {"measurement": "melanoma lines showing cytotoxicity", "setting": "melanoma cell lines; 40 ng/ml for 3 days", "value": "5 of 6"}, {"measurement": "bFGF-induced angiogenesis (hemoglobin)", "setting": "[2]", "value": "significantly inhibited"}, {"measurement": "concentration giving complete inhibition of migration", "setting": "HUVEC [3]", "value": 50, "unit": "ng/mL"}, {"measurement": "endothelial cell migration in response to VEGF", "setting": "HUVEC [3]", "value": "inhibited endothelial cell migration significantly"}, {"measurement": "radiosensitizing effects", "setting": "[4]", "value": "does not produce radiosensitizing effects"}, {"measurement": "increase in pSTAT-3 expression over PBS treated control", "setting": "STAT-3", "value": "2-3 times"}, {"measurement": "cell growth inhibition or cell death", "setting": "A549 and H1299", "value": "did not induce cell growth inhibition or cell death"}]}]}
